Test results reported in publication PMC3469484.
Residue numbers refer to the chain shown, from its start.

Assays:
[1] = system: T1, OhrR C126S C126S (Chromobacterium violaceum ATCC 12472), ORF:deafe3b3; assay: EMSA; settings: EMSA: 20 mM Tris-HCl pH 7.4, 50 mM KCl, 1 mM DTT, 1 mM EDTA, 5% glycerol, 0.05 mg/ml BSA, 0.1 mg/ml salmon sperm DNA, 25 C, 25 min; footprinting the same …
T1 sequence: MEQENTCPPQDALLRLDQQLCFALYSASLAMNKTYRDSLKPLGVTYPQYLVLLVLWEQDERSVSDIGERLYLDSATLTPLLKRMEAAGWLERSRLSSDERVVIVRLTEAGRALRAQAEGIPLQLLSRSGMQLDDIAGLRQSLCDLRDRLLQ

[2] = system: T2, OhrR WT (Chromobacterium violaceum ATCC 12472), ORF:deafe3b3; assay: EMSA; settings: EMSA: 20 mM Tris-HCl pH 7.4, 50 mM KCl, 1 mM DTT, 1 mM EDTA, 5% glycerol, 0.05 mg/ml BSA, 0.1 mg/ml salmon sperm DNA, 25 C, 25 min; footprinting the same …
T2 sequence: T1 sequence with S126C

[3] = system: T2, OhrR WT (Chromobacterium violaceum ATCC 12472), ORF:deafe3b3; assay: DNase I footprinting; settings: EMSA: 20 mM Tris-HCl pH 7.4, 50 mM KCl, 1 mM DTT, 1 mM EDTA, 5% glycerol, 0.05 mg/ml BSA, 0.1 mg/ml salmon sperm DNA, 25 C, 25 min; footprinting the same …
[4] = molecular target: Chromobacterium violaceum OhrR (CV0210), wild type, N-terminal histidine tag (Chromobacterium violaceum); assay: cross-linking; intermolecular disulfide bond formed on oxidation, read by 14% nonreducing SDS-PAGE: DTT-reduced, desalted OhrR (10 µM) treated with 100 µM cumene hydroperoxide for 30 min, then alkylated with 100 mM NEM for 2 h; Coomassie stain

Substance: TAAGCTTGCGGTGGCTTCGGCGGTATACAGTACTTTTTGCAGAGGGTTCATCTGGCTCTCCTTGGCTTGACGCCGTTGCGATTAAAATAATGAGCTATTTAATAGTGCACTATCTAACTATCAAAACCCTGACGGGTTCATTGCAGCAGCCGGTCGCGCAGATCGCACAGCGACTGCCTCAATCCGGCGATATCGTCCAGTTGCATTCCGCTCCGGCAGGATCCA (double strand) [ohrA promoter]
- binding [1]: binds
- binding [2]: binds
- binding [3]: binds

Substance: Chromobacterium violaceum OhrR (CV0210), wild type, N-terminal histidine tag (natural protein)
- stoichiometry N [4]: 2

Substance: TGGATCCCTCGCTGGCCGATCTGGGACGCGGCCCGGTGCGGGCGGCCGCCTGATCGCGGTTTCGCGCCCGCTTGGCGCGGGCGCGTCGCGGTTCCGCATAATAATAAATTGCTTGCAATTAAATAGTGCACTATTTATTATGCGGCCATGGAACAAGAAAACACGTGCCCGCCGCAGGACGCGCTTTTGCGGCTGGACCAGCAACTCTGCTTCGCGCTGTATTCCGCCAAGCTTA (double strand) [ohrR promoter]
- binding [1]: binds
- binding [2]: binds
- binding [3]: binds

Substance: TGAATTCAATCCGTGACGCCGCACAGGGCGCCGGAATGGAACATTCGCGCGCGAACCGGAAAGCGACTCAGCAACGCATCCAGCCTGTCGACACATGCCTCAGCCACATCAGGACTCCTTATCAAATTTTCAGGATCCTATGCAGCTTATCGTCATTTTGCTTGGCATAAAGTTTCTCCAGCCAAACGGCTTAAGCCCACCAACCATCAGGAGCACATCATGTCGATTGAAACCATTCTGTACCGGACCCAAGCCACCGTAAGCTTA (double strand) [ohrB promoter]
- binding [2]: no binding
